This is an account of results in PMC4381397, “The recently identified modifier of murine metastable epialleles, Rearranged L-Myc Fusion, is involved in maintaining epigenetic marks at CpG island shores and enhancers”.

This series deals with Gata1CF (UniProt P17679 249-311). The series is described as follows: EMSA; 0.5 and 5 uM protein, 5 nM probe, 10 uM ZnSO4; 10 mM HEPES pH 7.9, 30 mM NaCl, 1 mM MgCl2, 20 uM EDTA, 10 mM DTT, 10 uM ZnSO4, 67 ug/mL acetylated BSA, 4% Ficoll; on ice 30 min. The note with it: protein: recombinant; label: 5' FAM.
Gata1CF, sequence (P17679 249-311): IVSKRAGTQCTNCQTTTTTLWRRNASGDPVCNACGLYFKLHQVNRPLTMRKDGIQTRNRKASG

B1: PP4 pentaprobe (ssDNA)
DNA: TATCCTACCCATTGGGCTCATCTGATCCATCCGGTCCCGTCCACTCGGCTATGTTATGCTGTATTGCAGTCGTGTCGCGTCGAGCTGCCCTAATCCCACC
Take B1: the binding result is “binds”.

B2: PP2 pentaprobe (ssDNA)
DNA: TATCTTACTTTAGTTTCATTTAATTGTGTTGTACTCTCCTCTGCGTTCACTTAGCTTAACTTGGTTTGGCTTGATTTGACTTCAGTTGCGCTCTATTCTA
As to B2, the binding result is “binds”.
